Read-outs that look alike come from different tables or passages of the source.
Legend:
[1] = target: T1, EphA4 ligand-binding domain (human, amino acids 22-203) (human, UniProt P54764, biotin on primary amines (EZ link NHS biotin) in the AlphaScreen assays only)
[2] = target: T2, human EphA4-Fc (R&D Systems) (Homo sapiens, UniProt P54764); experiment: co-IP; Nb on anti-HA magnetic Dynabeads used to capture recombinant EphA4; EphA4 detected with N-terminal anti-EphA4 antibody; conditions: both partners purified
T2 construct: EphA4, human; the results call it 'full-length recombinant' receptor, the methods an EphA4-hFc fusion protein from R&D Systems; also called hEphA4-Fc; EphA4-hFc; source: bought: R&D Systems

[3] = target: T1, EphA4 ligand-binding domain (human, …); experiment: SPR; Biacore T200; EphA4 LBD amine-coupled to CM5 chip (300 RU); Nbs (1-300 nM) as analyte, 60 μl/min; 10 mM Hepes, 150 mM NaCl, 3 mM EDTA, 0.01 mM Surfactant P-20, pH 7.35; two-state model; conditions: both partners purified
[4] = target: T3, mouse EphA4-Fc (R&D Systems) (mouse, UniProt Q03137); experiment: co-IP; 2.5 μg recombinant mouse or human EphA4 protein (or recombinant ephrin-B2 as negative control) on protein G magnetic Dynabeads, 1 μg Nb overnight at 4 °C, PBS washes; Nb detected with anti-HA; conditions: both partners purified
T3 construct: EphA4, mouse; the results call it 'full-length recombinant' receptor, the methods an EphA4-hFc fusion protein from R&D Systems; also called mEphA4-Fc; EphA4-hFc (mouse); source: bought: R&D Systems

[5] = target: T4, mouse recombinant EphA3 (Fc-tagged; R&D Systems) (mouse, UniProt P29319); experiment: AlphaScreen or HTRF; biotinylated Nbs (100 nM) with subhooking concentrations (10-100 nM) of mouse Fc-tagged Eph receptors; anti-IgG AlphaLISA acceptor and streptavidin donor beads; 50 mM Hepes, 100 mM NaCl, 0.1% Triton, 0.1% BSA; room temperature; conditions: both partners purified
T4 construct: EphA3, mouse, recombinant, Fc-tagged; source: bought: R&D Systems

[6] = target: T5, mouse recombinant EphA7 (Fc-tagged; R&D Systems) (mouse, UniProt Q61772); experiment: as above; conditions: both partners purified
T5 construct: EphA7, mouse, recombinant, Fc-tagged; source: bought: R&D Systems

[7] = target: T6, ephrin-B2 (Fc-tagged; R&D Systems) (UniProt P52799); experiment: co-IP; 2.5 μg recombinant mouse or human EphA4 protein (or recombinant ephrin-B2 as negative control) on protein G magnetic Dynabeads, 1 μg Nb overnight at 4 °C, PBS washes; Nb detected with anti-HA; conditions: both partners purified
T6 construct: ephrin-B2, recombinant, Fc-tagged (R&D Systems); also called recombinant ephrin-B2; ephrin-B2 ligand; source: bought: R&D Systems

[8] = target: T2, human EphA4-Fc (R&D Systems); experiment: SPR; Biacore T200; EphA4-hFc (human or mouse) captured (~500 RU) on anti-human Fc antibody; Nbs as analyte; 10 mM Hepes, 150 mM NaCl, 3 mM EDTA, 0.01 mM Surfactant P-20, pH 7.35; 1:1 or two-state model; conditions: both partners purified
[9] = target: T3, mouse EphA4-Fc (R&D Systems); experiment: as above; conditions: both partners purified
[10] = target: T2, human EphA4-Fc (R&D Systems); experiment: co-IP; 2.5 μg recombinant mouse or human EphA4 protein (or recombinant ephrin-B2 as negative control) on protein G magnetic Dynabeads, 1 μg Nb overnight at 4 °C, PBS washes; Nb detected with anti-HA; conditions: both partners purified
[11] = target: T1, EphA4 ligand-binding domain (human, …); experiment: cell-based or functional assay
[12] = target: T3, mouse EphA4-Fc (R&D Systems); experiment: co-IP; Nb on anti-HA magnetic Dynabeads used to capture recombinant EphA4; EphA4 detected with N-terminal anti-EphA4 antibody; conditions: both partners purified
[13] = target: T7, human EphA7 (recombinant, EphA7/ephrin-A5 competition assay) (Homo sapiens, UniProt Q15375); experiment: AlphaScreen or HTRF; competition: human EphA7 (3 nM) preincubated 1 h with increasing Nb, then biotinylated His-tagged human ephrin-A5 (30 nM); anti-IgG acceptor and streptavidin donor beads; 50 mM Hepes, 100 mM NaCl, 0.1% Triton, 0.1% BSA; conditions: both partners purified
T7 construct: EphA7, human; Probably an Fc chimera of the extracellular domain, since anti-IgG acceptor beads were used

[14] = target: T8, mouse recombinant EphA6 (Fc-tagged; R&D Systems) (mouse, UniProt Q62413); experiment: AlphaScreen or HTRF; biotinylated Nbs (100 nM) with subhooking concentrations (10-100 nM) of mouse Fc-tagged Eph receptors; anti-IgG AlphaLISA acceptor and streptavidin donor beads; 50 mM Hepes, 100 mM NaCl, 0.1% Triton, 0.1% BSA; room temperature; conditions: both partners purified
T8 construct: EphA6, mouse, recombinant, Fc-tagged; source: bought: R&D Systems

[15] = target: T9, mouse recombinant EphA8 (Fc-tagged; R&D Systems) (mouse, UniProt O09127); experiment: as above; conditions: both partners purified
T9 construct: EphA8, mouse, recombinant, Fc-tagged; source: bought: R&D Systems
T9 sequence (O09127 27-541): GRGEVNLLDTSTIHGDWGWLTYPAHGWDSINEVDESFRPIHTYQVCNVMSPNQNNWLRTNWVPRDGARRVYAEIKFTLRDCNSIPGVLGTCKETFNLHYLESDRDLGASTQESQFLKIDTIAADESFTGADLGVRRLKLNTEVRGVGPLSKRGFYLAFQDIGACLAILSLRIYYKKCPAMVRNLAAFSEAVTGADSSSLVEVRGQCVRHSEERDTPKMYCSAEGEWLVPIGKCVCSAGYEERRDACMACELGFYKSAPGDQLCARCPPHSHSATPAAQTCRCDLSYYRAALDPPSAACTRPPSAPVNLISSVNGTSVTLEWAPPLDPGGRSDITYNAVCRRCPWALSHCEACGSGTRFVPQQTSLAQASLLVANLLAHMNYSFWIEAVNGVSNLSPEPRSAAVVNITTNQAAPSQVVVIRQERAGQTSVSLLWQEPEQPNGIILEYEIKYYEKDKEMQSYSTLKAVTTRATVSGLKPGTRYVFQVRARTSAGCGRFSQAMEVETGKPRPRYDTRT

T2 sequence (P54764 20-547): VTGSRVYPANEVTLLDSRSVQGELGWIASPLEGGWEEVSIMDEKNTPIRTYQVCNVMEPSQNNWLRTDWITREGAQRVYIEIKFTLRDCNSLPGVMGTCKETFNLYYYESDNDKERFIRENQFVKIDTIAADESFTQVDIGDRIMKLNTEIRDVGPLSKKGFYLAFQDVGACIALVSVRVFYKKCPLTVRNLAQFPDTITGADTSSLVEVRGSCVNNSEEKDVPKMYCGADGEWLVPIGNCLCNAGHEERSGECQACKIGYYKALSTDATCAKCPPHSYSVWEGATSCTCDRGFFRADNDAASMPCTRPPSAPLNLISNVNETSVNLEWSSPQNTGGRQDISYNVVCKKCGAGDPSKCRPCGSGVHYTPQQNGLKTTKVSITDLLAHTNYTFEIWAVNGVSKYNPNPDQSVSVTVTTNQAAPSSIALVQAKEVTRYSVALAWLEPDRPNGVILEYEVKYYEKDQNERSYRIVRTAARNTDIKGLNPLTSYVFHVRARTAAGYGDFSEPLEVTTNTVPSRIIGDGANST
T3 sequence (Q03137 20-547): as the sequence (P54764 20-547) above, with P59A, N121S, V124G, R250Q, S251N, T270S, K378R, N406S counted along it
T1 sequence (P54764 22-203): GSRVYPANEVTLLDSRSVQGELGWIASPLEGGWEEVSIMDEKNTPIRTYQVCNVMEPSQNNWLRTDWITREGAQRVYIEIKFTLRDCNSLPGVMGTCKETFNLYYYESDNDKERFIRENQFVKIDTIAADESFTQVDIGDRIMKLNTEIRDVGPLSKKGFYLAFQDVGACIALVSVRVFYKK
T7 sequence (Q15375 28-998): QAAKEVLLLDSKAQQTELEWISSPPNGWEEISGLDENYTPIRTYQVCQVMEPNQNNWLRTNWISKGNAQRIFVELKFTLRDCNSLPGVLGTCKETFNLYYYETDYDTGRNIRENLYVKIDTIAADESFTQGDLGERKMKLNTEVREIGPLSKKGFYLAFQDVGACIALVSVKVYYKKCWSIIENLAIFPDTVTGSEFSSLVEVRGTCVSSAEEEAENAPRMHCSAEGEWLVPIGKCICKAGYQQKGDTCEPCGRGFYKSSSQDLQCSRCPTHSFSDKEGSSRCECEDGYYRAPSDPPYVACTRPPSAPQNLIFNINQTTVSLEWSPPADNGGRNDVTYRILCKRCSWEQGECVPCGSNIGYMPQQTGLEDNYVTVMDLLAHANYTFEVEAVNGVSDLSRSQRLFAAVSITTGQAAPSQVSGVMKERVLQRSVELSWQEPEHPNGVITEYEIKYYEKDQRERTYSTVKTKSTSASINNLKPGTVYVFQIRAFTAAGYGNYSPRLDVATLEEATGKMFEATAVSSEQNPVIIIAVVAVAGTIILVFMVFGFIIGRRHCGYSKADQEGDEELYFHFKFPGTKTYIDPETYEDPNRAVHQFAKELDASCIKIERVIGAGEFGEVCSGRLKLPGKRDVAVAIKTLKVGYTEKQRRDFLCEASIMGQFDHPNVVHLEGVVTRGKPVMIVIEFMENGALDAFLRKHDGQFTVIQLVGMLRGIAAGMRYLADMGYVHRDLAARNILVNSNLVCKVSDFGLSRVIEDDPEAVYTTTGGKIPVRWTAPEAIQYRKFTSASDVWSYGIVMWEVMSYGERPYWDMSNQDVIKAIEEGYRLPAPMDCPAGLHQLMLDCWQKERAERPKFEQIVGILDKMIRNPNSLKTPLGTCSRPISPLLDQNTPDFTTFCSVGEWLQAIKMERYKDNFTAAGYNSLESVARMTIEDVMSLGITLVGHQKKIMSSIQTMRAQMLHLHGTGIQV
T4 sequence (P29319 21-540): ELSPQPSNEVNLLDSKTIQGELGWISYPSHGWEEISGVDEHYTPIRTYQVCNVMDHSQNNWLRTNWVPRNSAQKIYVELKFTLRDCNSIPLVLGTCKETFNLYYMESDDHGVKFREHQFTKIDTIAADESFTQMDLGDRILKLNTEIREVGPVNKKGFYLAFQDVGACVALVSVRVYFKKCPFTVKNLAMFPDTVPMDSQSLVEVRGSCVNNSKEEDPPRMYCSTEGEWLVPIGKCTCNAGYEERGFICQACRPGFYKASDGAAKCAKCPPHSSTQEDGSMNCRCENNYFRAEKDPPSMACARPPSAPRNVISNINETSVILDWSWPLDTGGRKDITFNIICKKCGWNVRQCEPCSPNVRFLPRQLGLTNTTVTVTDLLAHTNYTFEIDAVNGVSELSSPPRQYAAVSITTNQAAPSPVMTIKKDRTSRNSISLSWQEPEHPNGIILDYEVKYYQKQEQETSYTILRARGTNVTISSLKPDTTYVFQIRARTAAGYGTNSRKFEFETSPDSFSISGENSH
T5 sequence (Q61772 28-555): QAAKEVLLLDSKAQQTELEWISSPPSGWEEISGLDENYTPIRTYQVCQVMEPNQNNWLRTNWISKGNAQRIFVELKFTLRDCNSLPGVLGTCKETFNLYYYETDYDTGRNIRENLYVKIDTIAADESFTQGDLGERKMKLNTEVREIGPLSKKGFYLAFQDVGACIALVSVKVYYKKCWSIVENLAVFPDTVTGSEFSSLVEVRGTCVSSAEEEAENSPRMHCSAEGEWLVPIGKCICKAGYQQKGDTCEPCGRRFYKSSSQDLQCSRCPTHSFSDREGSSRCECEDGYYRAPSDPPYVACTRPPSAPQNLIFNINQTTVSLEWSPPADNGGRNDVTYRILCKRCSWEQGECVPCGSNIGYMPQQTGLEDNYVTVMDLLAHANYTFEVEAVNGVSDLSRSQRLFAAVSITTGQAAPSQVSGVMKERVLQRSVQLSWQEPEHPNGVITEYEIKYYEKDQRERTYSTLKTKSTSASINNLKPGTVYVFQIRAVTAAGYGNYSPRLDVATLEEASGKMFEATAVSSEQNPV
T6 sequence (P52799 28-229): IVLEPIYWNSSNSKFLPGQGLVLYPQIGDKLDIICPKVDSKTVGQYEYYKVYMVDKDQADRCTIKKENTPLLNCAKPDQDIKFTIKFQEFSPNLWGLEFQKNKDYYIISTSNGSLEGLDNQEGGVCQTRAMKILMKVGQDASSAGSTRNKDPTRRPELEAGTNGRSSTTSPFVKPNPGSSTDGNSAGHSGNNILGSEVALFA
T8 sequence (Q62413 23-549): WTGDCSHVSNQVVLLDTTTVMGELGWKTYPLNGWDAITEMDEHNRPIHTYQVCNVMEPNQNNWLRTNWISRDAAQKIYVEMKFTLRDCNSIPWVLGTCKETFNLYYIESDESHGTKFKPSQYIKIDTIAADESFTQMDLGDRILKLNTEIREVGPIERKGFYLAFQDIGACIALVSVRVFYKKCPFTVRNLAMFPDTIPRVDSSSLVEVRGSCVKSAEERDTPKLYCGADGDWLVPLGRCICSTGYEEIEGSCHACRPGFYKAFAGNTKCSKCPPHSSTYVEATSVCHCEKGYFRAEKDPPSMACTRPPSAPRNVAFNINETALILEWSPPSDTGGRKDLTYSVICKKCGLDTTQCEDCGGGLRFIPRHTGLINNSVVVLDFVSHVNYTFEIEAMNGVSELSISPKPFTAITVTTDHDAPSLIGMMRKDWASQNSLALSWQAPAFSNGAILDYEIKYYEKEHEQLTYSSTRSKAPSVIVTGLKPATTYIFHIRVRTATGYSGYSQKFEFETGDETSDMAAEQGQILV

B1: Nb 28 (VHH)
VHH: QVQLQESGGGLVQAGGSLRLSCAASGFTFSSNWMYWVRQAPGKGLEWVSGINSGGSSTYYSDSVKGRFTISRDNAKNTLYLQMNSLKPEDTAVYYCAKYSGSYYYRRGPGTQVTVSS
binding result [1]: binds

B2: Nb 57 (VHH)
VHH: QVQLQESGGGLVQPGGSLRLSCAASGFTFSSYYMYWVRQAPGKGLEWVSTINTGGGSTNYADSVKGRFIISRDNAKNTVYLQMNSLKPEDTAVYYCNAFAAGWGPDYWGQGTQVTVSS
notes: Cloned in the phagemid pMECS; Same clonal group as Nb 19; also called Nanobody 57; source: E. coli WK6, periplasmic extract, purified (His GraviTrap, Sephadex G25)
binding result [2]: binds | binding result [3]: binds | binding result [4]: binds | binding result [5]: binds | binding result [6]: binds

B3: Nb 19 (VHH)
VHH: QVQLQESGGGLVQPGGSLRLSCAATGRNFNAYSIAWFRQAPGKEREFVASINWSGSNTYYAVAVKGRFTTSRDNAKNTVYLQMNSLKPEDTAVYYCNAFAAGWGPDYWGQGTQVTVSS
notes: Cloned in the phagemid pMECS; Same clonal group as Nb 57; also called Nanobody 19; source: E. coli WK6, periplasmic extract, purified (His GraviTrap, Sephadex G25)
binding result [3]: binds

B4: Nb 16 (VHH)
VHH: QVQLQESGGGLVQPGGSLRLSCAASGFTFSNYAMSWVRQAPGKGLEWVSGINKGGGSAYYSDSVKGRFTISRDNAENTLYLQMNNLKPEDTAVYYCVIPWGLGSNEYDYWGQGTQVTVSS
binding result [1]: binds

B5: Nb 90 (VHH)
VHH: QVQLQESGGGLVQPGGSLRLSCAASGFTFSSHWIYWVRQAPGKQRELVAAITSGGSTNYADSVKGRFTISRDNAKNTVFLQMNSLKPEDTAVYYCNAWGFLLGDIEDYWGQGTQVTVSS
binding result [1]: binds

B6: Nb 60 (VHH)
VHH: QVQLQESGGGLVQPGGSLRLSCAASGFTFSRYWIYWVRQAPGKQRELVAAITRNGVTNYADSVKGRFTISTDDNKNTVYLQMNSLKSEDTAVYYCNAWGFLLGDIEDYWGQGTQVTVSS
notes: Cloned in the phagemid pMECS; Same clonal group as Nb 90; also called Nanobody 60; source: E. coli WK6, periplasmic extract, purified (His GraviTrap, Sephadex G25)
binding result [3]: binds | binding result [7]: binds | binding result [8]: binds | binding result [9]: binds

B7: Nb 71 (VHH)
VHH: QVQLQESGGGLVQPGGSLRLSCAASGFTFSSYWMYWVRQTPGKGLEWVSGINSPGSITGYADSVKGRFTISRDNAKNTLYLQMNSLKSDDTAVYYCARDLTYGGNSLRYIERGQGTQVTVSS
binding result [1]: binds

B8: Nb 22 (VHH)
VHH: QVQLQESGGGPVRAGESLRLSCTASGRAFSTYTMGWFRQAPGKERELVAVITPGGNTNYADSVKGRFTISRDDAKNTVYLQMNSLKPVDTAVYYCHVVLAVVGTGNEYDVWGQGTQVTVSS
notes: Cloned in the phagemid pMECS; also called Nanobody 22; source: E. coli WK6, periplasmic extract, purified (His GraviTrap, Sephadex G25)
binding result [3]: binds | binding result [10]: binds | fold difference in binding affinity between human and mouse EphA4 [9]: 2 fold

B9: Nb 34 (VHH)
VHH: QVQLQESGGGLVQAGGSLRLSCAASGFTFSSYAMSWVRQAPGKGLEWVSGINTGGGSTYYADSVKGRFTISRDNAKNTLYLQMNSLKSEDTAVYYCVPRVGVLEGLTSFGSWGQGTQVTVSS
notes: Cloned in the phagemid pMECS; Same clonal group as Nb 47; also called Nanobody 34; source: E. coli WK6, periplasmic extract, purified (His GraviTrap, Sephadex G25)
binding result [3]: no binding (tested: 1–300 nM)

B10: Nb 47 (VHH)
VHH: QVQLQESGGGLVQPGGSLRLSCAASGFTFSSYAMSWVRQAPGKGLEWVSGINTGGGSTYYADSVKGRFTISRDNAKNTLYLQMNSLKSEDTAVYYCVPRVGVLEGLTSFGSWGQGTQVTVSS
notes: Cloned in the phagemid pMECS; Same clonal group as Nb 34; also called Nanobody 47; source: E. coli WK6, periplasmic extract, purified (His GraviTrap, Sephadex G25)
binding result [3]: no binding (tested: 1–300 nM)

B11: Nb 39 (VHH)
VHH: QVQLQESGGGLVQPGGSLKLSCAASGFTFSTYAMSWVRQAPGKGLEWVSRINSGGGYTWHADSVKGRFTISRDNARNTVYLQMNNLKPEDTAVYYCTNLNTGWRPEYWGQGTQVTVSS
notes: Cloned in the phagemid pMECS; also called Nanobody 39; source: E. coli WK6, periplasmic extract, purified (His GraviTrap, Sephadex G25)
IC50 of inhibition of ephrin-A1-induced EphA4 phosphorylation (PathHunter assay, EphA4-expressing U2OS cells); blocks ephrin-A1 with EphA4 [11]: 0.17 µM | binding result [12]: binds | binding result [13]: binds

B12: Nb 10 (VHH)
VHH: QVQLQESGGGLVQAGGSLRLSCAASGRTFSSYAMGWFRQAPGTKREMIAAVTKAGTTSYANPVKGRFTISRDDAKNMVYLQMNNLKPEDSAVYYCNAISPLWDEYDFWGPGTQVTVSS
binding result [1]: binds

B13: Nb 31 (VHH)
VHH: QVQLQESGGGLVQAGGSLRLSCAASGFASDAYAIGWFRQAPGTKREMIAAVTKAGATNYANPVKGRFTISRDDAKNMVYLQMNNLKPEDSAVYYCNAISPLWDEYDFWGPGTQVTVSS
notes: Cloned in the phagemid pMECS; Same clonal group as Nb 50, 10 and 53; also called Nanobody 31; source: E. coli WK6, periplasmic extract, purified (His GraviTrap, Sephadex G25)
binding result [12]: binds | binding result [3]: binds | binding result [10]: binds

B14: Nb 50 (VHH)
VHH: QVQLQESGGGLVQAGGSLRLSCAASGRTFNSYAEAWFRQAPGKEREMIAAVTKAGTTNYANPVKGRFTISRDDAKNMVYLQMNNLKPEDSAVYYCNAISPLWDEYDFWGPGTQVTVSS
notes: Cloned in the phagemid pMECS; Same clonal group as Nb 31, 10 and 53; also called Nanobody 50; source: E. coli WK6, periplasmic extract, purified (His GraviTrap, Sephadex G25)
binding result [2]: binds | binding result [12]: binds | binding result [3]: binds | binding result [5]: binds | binding result [14]: binds | binding result [6]: binds | binding result [15]: binds

B15: Nb 53 (VHH)
VHH: QVQLQESGGGVVQAGGSLRLSCAASGRAFSSYAMGWFRQAPGTKREMIAAVTRAGTTNYANPVKGRFTISRDDAKNMVYLQMNNLKPEDSAVYYCNAISPLWDEYDFWGPGTQVTVSS
notes: Cloned in the phagemid pMECS; Same clonal group as Nb 31, 50 and 10; also called Nanobody 53; source: E. coli WK6, periplasmic extract, purified (His GraviTrap, Sephadex G25)
IC50 of inhibition of ephrin-A1-induced EphA4 phosphorylation (PathHunter assay, EphA4-expressing U2OS cells); blocks ephrin-A1 with EphA4 [11]: 0.261 µM | binding result [12]: binds | binding result [13]: binds

Reference: PMC5500810, “Identification and characterization of Nanobodies targeting the EphA4 receptor” (The Journal of Biological Chemistry, 2017)
